Each block holds one binder with its values, some of them ahead of it. Numbered stars: 1 amine (or outer) side, 2 acyl side, 3 side chain; on linkers, the order of the positions; unused ones are H or OH. Bridge positions count the residues as written; N and C are the ends. * marks the point of attachment. C20 diacid = O=C(O)CCCCCCCCCCCCCCCCCCC(=O)*; γGlu = O=C(O)[C@H](CCC(=O)[*:2])N[*:1]
Tests used:
[1] = target: T1, rat calcitonin receptor (rat, UniProt P32214 25-516); experiment: IC50 at rCTR divided by IC50 at rAmylin-R (reference)
T1 construct: whole, on cells; Membranes of BHK tk'ts 13 cells transiently transfected with the rat calcitonin receptor; also called rCTR; rat calcitonin (a) receptor
T1 sequence (looked up): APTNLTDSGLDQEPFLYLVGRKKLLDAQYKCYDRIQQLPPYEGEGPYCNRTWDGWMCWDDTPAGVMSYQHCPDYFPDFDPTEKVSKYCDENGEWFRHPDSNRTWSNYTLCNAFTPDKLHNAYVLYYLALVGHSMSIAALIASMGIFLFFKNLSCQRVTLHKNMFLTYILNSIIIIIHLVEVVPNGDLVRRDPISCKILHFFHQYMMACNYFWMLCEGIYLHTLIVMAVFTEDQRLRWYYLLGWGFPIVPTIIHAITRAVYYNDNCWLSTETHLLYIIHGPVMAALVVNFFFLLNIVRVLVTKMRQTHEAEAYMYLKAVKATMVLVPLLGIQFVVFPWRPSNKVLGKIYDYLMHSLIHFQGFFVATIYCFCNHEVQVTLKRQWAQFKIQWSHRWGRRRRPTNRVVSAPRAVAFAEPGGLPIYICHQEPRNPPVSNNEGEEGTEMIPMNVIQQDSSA

[2] = target: T2, human calcitonin receptor (human, UniProt P30988 25-474); experiment: IC50 at hCTR divided by IC50 at hAmylin-R (reference)
T2 construct: whole, on cells; Membranes of a BHK tk'ts 13 cell line stably transfected with the human calcitonin receptor; also called hCTR; hCT
T2 sequence (looked up): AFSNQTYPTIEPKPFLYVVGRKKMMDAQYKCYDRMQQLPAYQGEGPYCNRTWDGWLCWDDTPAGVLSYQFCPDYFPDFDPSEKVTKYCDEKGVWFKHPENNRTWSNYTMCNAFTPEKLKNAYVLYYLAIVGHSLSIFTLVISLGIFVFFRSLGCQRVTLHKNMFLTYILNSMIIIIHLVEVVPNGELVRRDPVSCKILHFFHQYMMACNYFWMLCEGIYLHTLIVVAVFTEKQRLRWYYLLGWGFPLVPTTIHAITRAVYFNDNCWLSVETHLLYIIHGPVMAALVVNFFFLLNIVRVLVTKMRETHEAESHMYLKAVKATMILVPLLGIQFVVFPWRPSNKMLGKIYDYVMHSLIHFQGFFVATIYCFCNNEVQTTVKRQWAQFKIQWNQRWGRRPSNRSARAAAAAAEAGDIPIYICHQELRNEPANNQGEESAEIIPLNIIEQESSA
Method in brief: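 IC₅₀ values were derived by one-site competition analysis of SPA counts. Cell membranes (35 ng/μL) with SPA beads were incubated with test compounds for 120 min at 25° C in Hepes buffer, pH 7.4, containing CaCl2, MgCl₂, OA and Tween20.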

[3] = target: T1, rat calcitonin receptor; experiment: SPA competition vs 125I-calcitonin, membranes with rat CTR (Assay VIII)
[4] = target: T3, rat amylin receptor (rat calcitonin receptor + rat RAMP 3) (rat, UniProt P32214 25-516; Q9JJ73 23-147); experiment: SPA competition vs 125I-rat amylin, membranes with rat CTR + rat RAMP3 (Assay VI)
T3 construct: whole, on cells; Membranes of BHK tk'ts 13 cells transiently transfected with the rat calcitonin receptor and rat RAMP 3; also called rAmylin-R; rat amylin 3(a) receptor
T3 sequence (looked up) 1: T1 sequence (looked up)
T3 sequence (looked up) 2: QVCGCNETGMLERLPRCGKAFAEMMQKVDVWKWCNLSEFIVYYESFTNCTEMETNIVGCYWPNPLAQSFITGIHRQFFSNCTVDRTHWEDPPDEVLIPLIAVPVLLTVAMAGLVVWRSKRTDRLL

- Ratio rCT/rAmylin binding [1]: 14.3
- Ratio hCT/hAmylin binding [2]: 2.3
- IC50 [3]: 7.35 nM
- IC50 [4]: 0.514 nM
B1: N^α1-[(4S)-4-carboxy-4-(19-carboxynonadecanoylamino)butanoyl]-[Glu14,Arg17,Pro21,Pro27,Pro29]-h-amylin (peptide)
peptide: {C20 diacid-γGlu}-KCNTATCATQRLAEFLRHSSPNFGAIPSPTNVGSNTY-NH2
modifications: disulfide 2-7
SMILES: CC[C@H](C)[C@H](NC(=O)[C@H](C)NC(=O)CNC(=O)[C@H](Cc1ccccc1)NC(=O)[C@H](CC(N)=O)NC(=O)[C@@H]1CCCN1C(=O)[C@H](CO)NC(=O)[C@H](CO)NC(=O)[C@H](Cc1c[nH]cn1)NC(=O)[C@H](CCCNC(=N)N)NC(=O)[C@H](CC(C)C)NC(=O)[C@H](Cc1ccccc1)NC(=O)[C@H](CCC(=O)O)NC(=O)[C@H](C)NC(=O)[C@H](CC(C)C)NC(=O)[C@H](CCCNC(=N)N)NC(=O)[C@H](CCC(N)=O)NC(=O)[C@@H](NC(=O)[C@H](C)NC(=O)[C@@H]1CSSC[C@H](NC(=O)[C@H](CCCCN)NC(=O)CC[C@H](NC(=O)CCCCCCCCCCCCCCCCCCC(=O)O)C(=O)O)C(=O)N[C@@H](CC(N)=O)C(=O)N[C@@H]([C@@H](C)O)C(=O)N[C@@H](C)C(=O)N[C@@H]([C@@H](C)O)C(=O)N1)[C@@H](C)O)C(=O)N1CCC[C@H]1C(=O)N[C@@H](CO)C(=O)N1CCC[C@H]1C(=O)N[C@H](C(=O)N[C@@H](CC(N)=O)C(=O)N[C@H](C(=O)NCC(=O)N[C@@H](CO)C(=O)N[C@@H](CC(N)=O)C(=O)N[C@H](C(=O)N[C@@H](Cc1ccc(O)cc1)C(N)=O)[C@@H](C)O)C(C)C)[C@@H](C)O
notes: modifications are with respect to human amylin; also called compound 37

- Ratio rCT/rAmylin binding [1]: 42.8
- Ratio hCT/hAmylin binding [2]: 16
- IC50 [3]: 26.5 nM
- IC50 [4]: 0.619 nM
B2: N^α1-[(4S)-4-carboxy-4-(19-carboxynonadecanoylamino)butanoyl]-[Glu14,Arg17,Pro21,Pro27,Pro31]-h-amylin (peptide)
peptide: {C20 diacid-γGlu}-KCNTATCATQRLAEFLRHSSPNFGAIPSSTPVGSNTY-NH2
modifications: disulfide 2-7
SMILES: CC[C@H](C)[C@H](NC(=O)[C@H](C)NC(=O)CNC(=O)[C@H](Cc1ccccc1)NC(=O)[C@H](CC(N)=O)NC(=O)[C@@H]1CCCN1C(=O)[C@H](CO)NC(=O)[C@H](CO)NC(=O)[C@H](Cc1c[nH]cn1)NC(=O)[C@H](CCCNC(=N)N)NC(=O)[C@H](CC(C)C)NC(=O)[C@H](Cc1ccccc1)NC(=O)[C@H](CCC(=O)O)NC(=O)[C@H](C)NC(=O)[C@H](CC(C)C)NC(=O)[C@H](CCCNC(=N)N)NC(=O)[C@H](CCC(N)=O)NC(=O)[C@@H](NC(=O)[C@H](C)NC(=O)[C@@H]1CSSC[C@H](NC(=O)[C@H](CCCCN)NC(=O)CC[C@H](NC(=O)CCCCCCCCCCCCCCCCCCC(=O)O)C(=O)O)C(=O)N[C@@H](CC(N)=O)C(=O)N[C@@H]([C@@H](C)O)C(=O)N[C@@H](C)C(=O)N[C@@H]([C@@H](C)O)C(=O)N1)[C@@H](C)O)C(=O)N1CCC[C@H]1C(=O)N[C@@H](CO)C(=O)N[C@@H](CO)C(=O)N[C@H](C(=O)N1CCC[C@H]1C(=O)N[C@H](C(=O)NCC(=O)N[C@@H](CO)C(=O)N[C@@H](CC(N)=O)C(=O)N[C@H](C(=O)N[C@@H](Cc1ccc(O)cc1)C(N)=O)[C@@H](C)O)C(C)C)[C@@H](C)O
notes: modifications are with respect to human amylin; also called compound 31

From patent US20140087995A1 (published 2014)
